Laboratory results: article PMC6547859 (The Journal of Experimental Medicine, 2019)

Target: the molecule itself
Assay: SEC

B1: FLAG-tagged Regnase-1, full-length, phosphorylated (Expi293F, coexpressed with Myc-Act1 and HA-TBK1 or HA-IKKi) (natural protein, UniProt Q5D1E7 1-596, looked up)
chain: MSDPCGTKPVQESNPTMSLWSLEDRHSSQGRPQPDQDPVAKEAPTSELQMKVDFFRKLGYSSSEIHSVLQKLGVQADTNTVLGELVKHGSATERECQALTAPSPQPPLVPRGGSTPKPSTLEPSLPEEDREGSDLRPVVIDGSNVAMSHGNKEVFSCRGILLAVNWFLERGHTDITVFVPSWRKEQPRPDVPITDQHILRELEKKKILVFTPSRRVGGKRVVCYDDRFIVKLAFESDGVVVSNDTYRDLQGERQEWKRFIEERLLMYSFVNDKFMPPDDPLGRHGPSLDNFLRKKPLPSEHRKQPCPYGKKCTYGIKCRFFHPERPSRPQRSVADELRANALLSPPRTPVKDKSSQRPSPASQSSSVSLEAEPGSLDGKKLGARSSPGPHREGSPQTCAPAGRSLPVSGGSFGPTEWLAHTQDSLPYTSQECLDSGIGSLESQMSELWGVRGGSPGESGPTRGPYAGYHSYGSKVPAAPSFSPFRPAMGAGHFSVPTDYVPPPPTYPSREYWSEPYPLPPPTPVLQEPQRPSPGAGGGPWGRVGDLAKERAGVYTKLCGVFPPHLVEAVMRRFPQLLDPQQLAAEILSYKSQHLSE
modifications: phosphorylated by coexpression with Act1 and TBK1 or IKKi; phosphorylation sites identified: Ser439, Ser494, Thr505, Ser508, Ser513
stoichiometry N: 3
